Assay results from patent US20260166185A1 (Y MABS THERAPEUTICS, published 2026).
Values belong to the binder of their own block, whether it stands above or below them.

Columns and labels:
bio-huCD38 [1] = target: T1, bio-huCD38 (human (hu), UniProt P28907 43-300, biotinylated (bio-), site not stated); assay: SPR, antibody captured on chip, antigen as analyte 200-6.25 nM
Experimental: (§1) SPR analysis was performed on a Biocore 8K+, using a CFJB0944 CM5 sensor chip for immobilization and a SPR running buffer 1×HBS-EP+pH 7.4 (Cytiva, cat no. BR100669) according to the manufacturer's instructions.
In the first part of this example the antibody was immobilized on the chip and the antigen dissolved in the SPR running buffer flowed over the chip.

bio-huCD38 [2] = target: T1, bio-huCD38; assay: SPR, antigen immobilized, antibody as analyte 25-1.6 nM
Experimental: as §1
(§2) In the second part of this example, antigen was immobilized on the chip and antibody dissolved in the SPR running buffer flowed over the chip.

bio-huCD38 [3] = target: T1, bio-huCD38; assay: SPR, antigen immobilized, antibody as analyte 25-1.6 nM; at the instrument's limit
CD38 on Daudi cells = target: T2, CD38 on Daudi cells (UniProt P28907 1-300, limits assumed); assay: titration binding FACS on Daudi cells
T2 construct: whole, on cells
Experimental: (§3) Subsequently the EC50 of antibodies samples was determined by titration binding FACS on Daudi cells (for CD38 binding evaluation), on THP-1 cells (for CD33 binding evaluation), on A-431 cells (for EGFR binding evaluation), on MKN-45 cells (for CEACAMS binding evaluation) and on HEK293T (for CD276 binding evaluation). Jurkat E6-1 or HEK293T cell lines were used as negative control, as applicable.

bio-huCD38 [4] = target: T1, bio-huCD38; assay: SPR, antigen immobilized, antibody as analyte 25-1.6 nM; estimated from ka and the limit kd, indicative
Experimental: as §1, §2

[5] = target: target expressed in cell line for the HER2/CD276 trivalent molecules (HER2 and/or CD276; cell line not named); assay: titration binding FACS, target cell line not named
CD276 on HEK293T cells = target: T3, CD276 on HEK293T cells (UniProt Q5ZPR3 29-534, limits assumed); assay: FACS titration on HEK293T cells (the line used for CD276 binding evaluation), GeoMFI (RL1-H); control cell line Jurkat E6-1
T3 construct: whole, on cells
T3 sequence (looked up): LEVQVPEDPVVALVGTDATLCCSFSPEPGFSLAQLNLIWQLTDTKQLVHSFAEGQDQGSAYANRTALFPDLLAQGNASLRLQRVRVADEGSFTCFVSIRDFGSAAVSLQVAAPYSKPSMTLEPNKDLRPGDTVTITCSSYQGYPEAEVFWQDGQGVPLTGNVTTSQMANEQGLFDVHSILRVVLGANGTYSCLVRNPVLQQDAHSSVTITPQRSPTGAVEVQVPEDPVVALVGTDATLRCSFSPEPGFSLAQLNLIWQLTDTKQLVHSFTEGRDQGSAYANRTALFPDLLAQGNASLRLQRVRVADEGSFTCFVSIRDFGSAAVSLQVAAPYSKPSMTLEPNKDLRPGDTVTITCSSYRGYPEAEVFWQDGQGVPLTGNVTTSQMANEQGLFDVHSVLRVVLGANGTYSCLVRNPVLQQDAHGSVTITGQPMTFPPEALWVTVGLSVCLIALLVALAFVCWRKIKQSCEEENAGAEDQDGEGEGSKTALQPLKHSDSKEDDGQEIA
Experimental: as §3

bio-huEGFR = bio-huEGFR (human (hu), UniProt P00533 25-645, biotinylated (bio-), site not stated); assay: SPR, antigen immobilized, antibody as analyte 25-1.6 nM
Experimental: as §1, §2

EGFR on A-431 cells = target: T4, EGFR on A-431 cells (UniProt P00533 25-1210, limits assumed); assay: titration binding FACS on A-431 cells
T4 construct: whole, on cells
Experimental: as §3

Kd (bio-huCD38 [1]): 2.77 nM
koff (bio-huCD38 [1]): 0.00012 s⁻¹
kon (bio-huCD38 [1]): 43200 M⁻¹ s⁻¹
kon (bio-huCD38 [2]): 121000 M⁻¹ s⁻¹
koff (bio-huCD38 [3]): < 1e-07 s⁻¹
EC50 (CD38 on Daudi cells): 3.45 nM
Kd (bio-huCD38 [4]): < 0.000826 nM
B1: CD38 (bivalent)-DOTA(Fab)-p53 (bispecific antibody)
light: DVQLQESGGGLVQAGGSLRLSCTGSGRTFRNYPMAWFRQAPGKEREFVAGITWVGASTLYADFAKGRFTISRDNAKNTVYLQMNSLKPEDTAVYSCAAGRGIVAGRIPAEYADWGQGTQVTVSSGGGGSGGGGSGGGGSGGGGGSQAVVIQESALTTPPGETVTLTCGSSTGAVTASNYANWVQEKPDHLFTGLIGGHNNRPPGVPARFSGSLIGDKAALTIAGTQTEDEAIYFCALWYSDHWVIGGGTRLTVLGQPKANPTVTLFPPSSEELQANKATLVCLISDFYPGAVTVAWKADGSPVKAGVETTKPSKQSNNKYAASSYLSLTPEQWKSHRSYSCQVTHEGSTVEKTVAPTECS
heavy: DVQLQESGGGLVQAGGSLRLSCTGSGRTFRNYPMAWFRQAPGKEREFVAGITWVGASTLYADFAKGRFTISRDNAKNTVYLQMNSLKPEDTAVYSCAAGRGIVAGRIPAEYADWGQGTQVTVSSGGGGSGGGGSGGGGSGGGGGSHVKLQESGPGLVQPSQSLSLTCTVSGFSLTDYGVHWVRQSPGKGLEWLGVIWSGGGTAYNTALISRLNIYRDNSKNQVFLEMNSLQAEDTAMYYCARRGSYPYNYFDAWGRGTTVTVSSASTKGPSVFPLAPSSKSTSGGTAALGCLVKDYFPEPVTVSWNSGALTSGVHTFPAVLQSSGLYSLSSVVTVPSSSLGTQTYICNVNHKPSNTKVDKKVEPKSCGGGGSGGGGSKPLDGEYFTLQIRGRERFEMFRELNEALELKDAQAGKEPGGS
notes: Two identical CD38 VHHs, one on each Fab chain; has the p53 tetramerization domain; also called YM00004; molecule 3

EC50 [5]: 12.4 nM
binding result (CD276 on HEK293T cells): binds
B2: HER2/CD276_23F11-DOTA(humanized fab)-p53 (bispecific antibody)
light: QVQLQESGGGSVQAGGSLKLTCAASGYIFNSCGMGWYRQSPGRERELVSRISGDGDTWHKESVKGRFTISQDNVKKTLYLQMNSLKPEDTAVYFCAVCYNLETYWGQGTQVTVSSGGGSGGGSGGGSGGGGSQAVVTQEPSLTVSPGGTVTLTCGSSTGAVTASNYANWVQQKPGQAPRGLIGGHNNRPPGVPARFSGSLLGGKAALTLLGAQPEDEAEYYCALWYSDHWVIGGGTKLTVLGQPKANPTVTLFPPSSEELQANKATLVCLISDFYPGAVTVAWKADGSPVKAGVETTKPSKQSNNKYAASSYLSLTPEQWKSHRSYSCQVTHEGSTVEKTVAPTECS
heavy: QVQLVESGGGLVQAGGSLRLSCAASGRTFSRQVMGWFRQAPGKERAFVAAISGSGGTTMYAGSVKGRFTISKDNAKNMVYLQMNSLKPEDTAVYYCNTVTPYDSWGQGTQVTVSSGGGGSGGGGSGGGGSGGGGGSHVQLVESGGGLVQPGGSLRLSCAASGFSLTDYGVHWVRQAPGKGLEWLGVIWSGGGTAYNTALISRFTISRDNSKNTLYLQMNSLRAEDTAVYYCARRGSYPYNYFDAWGQGTLVTVSSASTKGPSVFPLAPSSKSTSGGTAALGCLVKDYFPEPVTVSWNSGALTSGVHTFPAVLQSSGLYSLSSVVTVPSSSLGTQTYICNVNHKPSNTKVDKKVEPKSCGGGGSGGGGSKPLDGEYFTLQIRGRERFEMFRELNEALELKDAQAGKEPGGSGGAP
notes: Three specificities (HER2 VHH, CD276 VHH, humanized DOTA Fab); also called YM00053; molecule 17

EC50 [5]: 90.2 nM
binding result (CD276 on HEK293T cells): binds
B3: HER2/CD276_23A04-DOTA(humanized fab)-p53 (bispecific antibody)
light: B2 light
heavy: QVQLVESGGGLVQSGDSLRLSCGWSGRTFSGYAMGWFRKAPGKDYEFVAAISVSETKTRYADSIRGRFTISRDNAKNTVYLQMNSLKPEDTAVYYCAASRSGVVGGREPTRYNYWGQGTQVTVSSGGGGSGGGGSGGGGSGGGGGSHVQLVESGGGLVQPGGSLRLSCAASGFSLTDYGVHWVRQAPGKGLEWLGVIWSGGGTAYNTALISRFTISRDNSKNTLYLQMNSLRAEDTAVYYCARRGSYPYNYFDAWGQGTLVTVSSASTKGPSVFPLAPSSKSTSGGTAALGCLVKDYFPEPVTVSWNSGALTSGVHTFPAVLQSSGLYSLSSVVTVPSSSLGTQTYICNVNHKPSNTKVDKKVEPKSCGGGGSGGGGSKPLDGEYFTLQIRGRERFEMFRELNEALELKDAQAGKEPGGSGGAP
notes: Three specificities (HER2 VHH, CD276 VHH, humanized DOTA Fab); also called YM00052; molecule 18

Kd (bio-huEGFR): 2.12 nM
koff (bio-huEGFR): 0.000985 s⁻¹
kon (bio-huEGFR): 464000 M⁻¹ s⁻¹
EC50 (EGFR on A-431 cells): 51.5 nM
B4: EGFR-DOTA(fab)-p53 (bispecific antibody)
light: EVQLVESGGGLVQPGGSLRLSCVASGFTFADYAMSWVRQAPGKGLQWVSSISYNGDTTYYAESMKDRFTISRDNAKNTLYLQMNSLKSEDTAVYYCASSGSYYPGHFESWGQGTQVTVSSGGGGSGGGGSGGGGSGGGGGSQAVVIQESALTTPPGETVTLTCGSSTGAVTASNYANWVQEKPDHLFTGLIGGHNNRPPGVPARFSGSLIGDKAALTIAGTQTEDEAIYFCALWYSDHWVIGGGTRLTVLGQPKANPTVTLFPPSSEELQANKATLVCLISDFYPGAVTVAWKADGSPVKAGVETTKPSKQSNNKYAASSYLSLTPEQWKSHRSYSCQVTHEGSTVEKTVAPTECS
heavy: HVKLQESGPGLVQPSQSLSLTCTVSGFSLTDYGVHWVRQSPGKGLEWLGVIWSGGGTAYNTALISRLNIYRDNSKNQVFLEMNSLQAEDTAMYYCARRGSYPYNYFDAWGRGTTVTVSSASTKGPSVFPLAPSSKSTSGGTAALGCLVKDYFPEPVTVSWNSGALTSGVHTFPAVLQSSGLYSLSSVVTVPSSSLGTQTYICNVNHKPSNTKVDKKVEPKSCGGGGSGGGGSKPLDGEYFTLQIRGRERFEMFRELNEALELKDAQAGKEPGGS
notes: The assays name bio-huEGFR and A-431 cells; also called YM00010; molecule 9

Kd (bio-huCD38 [1]): 1.89 nM
koff (bio-huCD38 [1]): 6.41e-05 s⁻¹
kon (bio-huCD38 [1]): 33800 M⁻¹ s⁻¹
kon (bio-huCD38 [2]): 187000 M⁻¹ s⁻¹
koff (bio-huCD38 [3]): < 1e-07 s⁻¹
EC50 (CD38 on Daudi cells): 3.24 nM
Kd (bio-huCD38 [4]): < 0.000535 nM
B5: CD38(Bivalent)-DOTA(fab)-p53_C-Term (bispecific antibody)
light: QAVVIQESALTTPPGETVTLTCGSSTGAVTASNYANWVQEKPDHLFTGLIGGHNNRPPGVPARFSGSLIGDKAALTIAGTQTEDEAIYFCALWYSDHWVIGGGTRLTVLGQPKANPTVTLFPPSSEELQANKATLVCLISDFYPGAVTVAWKADGSPVKAGVETTKPSKQSNNKYAASSYLSLTPEQWKSHRSYSCQVTHEGSTVEKTVAPTECSGGGGSGGGGSGGGGSGGGGGSDVQLQESGGGLVQAGGSLRLSCTGSGRTFRNYPMAWFRQAPGKEREFVAGITWVGASTLYADFAKGRFTISRDNAKNTVYLQMNSLKPEDTAVYSCAAGRGIVAGRIPAEYADWGQGTQVTVSS
heavy: HVKLQESGPGLVQPSQSLSLTCTVSGFSLTDYGVHWVRQSPGKGLEWLGVIWSGGGTAYNTALISRLNIYRDNSKNQVFLEMNSLQAEDTAMYYCARRGSYPYNYFDAWGRGTTVTVSSASTKGPSVFPLAPSSKSTSGGTAALGCLVKDYFPEPVTVSWNSGALTSGVHTFPAVLQSSGLYSLSSVVTVPSSSLGTQTYICNVNHKPSNTKVDKKVEPKSCGGGGSGGGGSGGGGSGGGGGSDVQLQESGGGLVQAGGSLRLSCTGSGRTFRNYPMAWFRQAPGKEREFVAGITWVGASTLYADFAKGRFTISRDNAKNTVYLQMNSLKPEDTAVYSCAAGRGIVAGRIPAEYADWGQGTQVTVSSGGGGSGGGGSKPLDGEYFTLQIRGRERFEMFRELNEALELKDAQAGKEPGGS
notes: Two identical C-terminal CD38 VHHs; has the p53 tetramerization domain; also called YM00015; molecule 14
